What all share (assay): AUC
In series [1] the target is Wild-type PhoB, unphosphorylated (Escherichia coli) (UniProt P0AFJ5).
The target in series [2] is PhoB^F20D, phosphorylated (Escherichia coli) (UniProt P0AFJ5).
Series [3] deals with Wild-type PhoB, phosphorylated (Escherichia coli) (UniProt P0AFJ5).
The series “AUC” deals with the molecule itself.

In the case of “Wild-type PhoB, unphosphorylated (from UniProt P0AFJ5 1-229) (natural protein)”, the equilibrium dissociation constant (Kd) in series [1] was found to be 378 µM.

On to “PhoB^F20D, phosphorylated (from UniProt P0AFJ5 1-229) (natural protein)”, for which the Kd in series [2] was 2.8 µM.

In series [3], “Wild-type PhoB, phosphorylated (from UniProt P0AFJ5 1-229) (natural protein)” yielded a dissociation constant Kd of 5.1 µM.

B1: PhoB^R91E/E111R, unphosphorylated (natural protein, Escherichia coli, UniProt P0AFJ5 1-229, looked up)
chain: MARRILVVEDEAPIREMVCFVLEQNGFQPVEAEDYDSAVNQLNEPWPDLILLDWMLPGGSGIQFIKHLKRESMTRDIPVVMLTARGEEEDEVRGLETGADDYITKPFSPKRLVARIKAVMRRISPMAVEEVIEMQGLSLDPTSHRVMAGEEPLEMGPTEFKLLHFFMTHPERVYSREQLLNHVWGTNVYVEDRTVDVHIRRLRKALEPGGHDRMVQTVRGTGYRFSTRF
For B1, the binding result in “AUC” is on record as “binds”.

B2: PhoB^R91E/E111R, phosphorylated (natural protein, Escherichia coli, UniProt P0AFJ5 1-229, looked up)
chain: B1 chain
modifications: phosphorylated at D53 (site of phosphorylation) with phosphoramidate; 100% phosphorylated at steady state
For the molecule B2, in “AUC”, the binding result is reported as “binds”.

By Kd is commonly meant a measure of binding affinity in units of concentration. Low values mean a tighter complex, high ones a looser complex.

The record behind these values is article PMC2716121 (Journal of molecular biology, 2009).
